Two molecules from paper PMC6179184, “Interaction of the Warsaw breakage syndrome DNA helicase DDX11 with the replication fork-protection factor Timeless promotes sister chromatid cohesion” (PLoS Genetics, 2018) can be followed below.

Assay [1] concerns the target T1, recombinant human Flag-Timeless (human, UniProt Q9UNS1 1-1208).
T1 construct: Timeless, human, component of the replication fork-protection complex; also called Flag-tagged Timeless; source: insect cells infected with a recombinant baculovirus (Sf9), purified
T1 sequence (looked up): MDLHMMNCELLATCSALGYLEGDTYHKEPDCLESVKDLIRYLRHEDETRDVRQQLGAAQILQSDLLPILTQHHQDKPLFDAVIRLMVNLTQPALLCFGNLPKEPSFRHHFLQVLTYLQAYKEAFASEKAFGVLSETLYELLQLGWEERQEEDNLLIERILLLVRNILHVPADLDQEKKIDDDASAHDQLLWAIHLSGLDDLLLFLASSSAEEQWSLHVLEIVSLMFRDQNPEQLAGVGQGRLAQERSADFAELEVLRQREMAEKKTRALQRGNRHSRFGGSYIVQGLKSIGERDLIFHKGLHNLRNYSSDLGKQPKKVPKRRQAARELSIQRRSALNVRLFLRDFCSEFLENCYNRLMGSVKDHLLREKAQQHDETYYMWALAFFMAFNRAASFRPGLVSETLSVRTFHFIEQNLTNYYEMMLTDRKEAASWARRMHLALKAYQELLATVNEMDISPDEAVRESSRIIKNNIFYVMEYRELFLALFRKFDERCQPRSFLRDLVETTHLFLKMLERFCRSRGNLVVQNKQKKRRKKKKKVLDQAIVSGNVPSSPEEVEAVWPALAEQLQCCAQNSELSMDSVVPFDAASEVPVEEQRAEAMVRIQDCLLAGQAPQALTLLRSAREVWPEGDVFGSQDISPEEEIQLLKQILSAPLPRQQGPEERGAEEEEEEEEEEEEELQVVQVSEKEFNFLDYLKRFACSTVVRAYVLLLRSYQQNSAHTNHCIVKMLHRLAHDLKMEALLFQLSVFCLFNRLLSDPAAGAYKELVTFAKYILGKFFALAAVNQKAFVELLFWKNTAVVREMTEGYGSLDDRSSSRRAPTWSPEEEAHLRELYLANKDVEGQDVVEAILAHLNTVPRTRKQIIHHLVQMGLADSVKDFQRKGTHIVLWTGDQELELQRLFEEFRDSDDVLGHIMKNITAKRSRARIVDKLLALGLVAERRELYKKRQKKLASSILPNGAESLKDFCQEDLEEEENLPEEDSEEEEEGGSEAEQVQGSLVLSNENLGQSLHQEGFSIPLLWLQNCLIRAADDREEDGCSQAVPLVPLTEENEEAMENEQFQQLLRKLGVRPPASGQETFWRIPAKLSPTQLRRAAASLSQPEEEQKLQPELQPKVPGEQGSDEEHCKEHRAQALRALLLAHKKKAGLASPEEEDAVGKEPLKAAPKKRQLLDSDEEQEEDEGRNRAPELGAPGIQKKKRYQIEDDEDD
Put plainly: peptide or protein array; PEPperCHIP microarrays of 15-residue DDX11 peptides on glass slides (tiling array, 13-residue overlap; full substitution scan of peptide # 32); Flag-Timeless at 50 ug/mL in PBS, 0.05% Tween 20, 1% BSA for 16 hr; detected with Cy3-labelled anti-Flag antibody; control array without Flag-Timeless. Conditions: both partners purified.

The target in assay [2] is T1, recombinant human Flag-Timeless. Put plainly: pull-down; mixtures of purified recombinant proteins (Timeless 0.8 ug or cohesin 1 ug, DDX11 0.5 ug, 200 uL) with anti-DDX11 antibody on Protein A beads; 25 mM Tris-HCl pH 7.5, 150 mM NaCl, 2 mM MgCl2, 1 mM DTT, 5% glycerol, 2 hr at 4 C; washes with 300 mM NaCl, 0.25% Triton X-100; immuno-blot. The conditions noted are these: both partners purified.

B1: DDX11 Peptide # 32 (peptide)
peptide: EQLESGEEELVLAEY
notes: 15-residue peptide of human DDX11 (906-residue protein), in Region T (65-225); its two C-terminal residues are Glu201 and Tyr202 of full-length DDX11; source: synthetic peptide, printed on a PEPperCHIP microarray (PEPperPRINT)
As to B1, in assay [1], the binding result is reported as “binds”.

B2: DDX11-3xFlag wild type (enzyme, human, UniProt Q96FC9-2 1-906, looked up)
chain: MANETQKVGAIHFPFPFTPYSIQEDFMAELYRVLEAGKIGIFESPTGTGKSLSLICGALSWLRDFEQKKREEEARLLETGTGPLHDEKDESLCLSSSCEGAAGTPRPAGEPAWVTQFVQKKEERDLVDRLKAEQARRKQREERLQQLQHRVQLKYAAKRLRQEEEERENLLRLSREMLETGPEAERLEQLESGEEELVLAEYESDEEKKVASRVDEDEDDLEEEHITKIYYCSRTHSQLAQFVHEVKKSPFGKDVRLVSLGSRQNLCVNEDVKSLGSVQLINDRCVDMQRSRHEKKKGAEEEKPKRRRQEKQAACPFYNHEQMGLLRDEALAEVKDMEQLLALGKEARACPYYGSRLAIPAAQLVVLPYQMLLHAATRQAAGIRLQDQVVIIDEAHNLIDTITGMHSVEVSGSQLCQAHSQLLQYVERYGKRLKAKNLMYLKQILYLLEKFVAVLGGNIKQNPNTQSLSQTGTELKTINDFLFQSQIDNINLFKVQRYCEKSMISRKLFGFTERYGAVFSSREQPKLAGFQQFLQSLQPRTTEALAAPADESQASTLRPASPLMHIQGFLAALTTANQDGRVILSRQGSLSQSTLKFLLLNPAVHFAQVVKECRAVVIAGGTMQPVSDFRQQLLACAGVEAERVVEFSCGHVIPPDNILPLVICSGISNQPLEFTFQKRELPQMMDEVGRILCNLCGVVPGGVVCFFPSYEYLRQVHAHWEKGGLLGRLAARKKIFQEPKSAHQVEQVLLAYSRCIQACGQERGQVTGALLLSVVGGKMSEGINFSDNLGRCVVMVGMPFPNIRSAELQEKMAYLDQTLPRAPGQAPPGKALVENLCMKAVNQSIGRAIRHQKDFASVVLLDQRYARPPVLAKLPAWIRARVEVKATFGPAIAAVQKFHREKSASS
notes: DDX11 (ChlR1), human, full-length protein of 906 residues (1-906); also called Flag-tagged wild type (WT) DDX11; ChlR1; source: HEK 293T, transiently transfected (pcDNA 3.0); purified, and in whole cell extract; not shown: 3xFlag, C-terminal, kept
As to B2, the binding result in assay [2] was “binds”.
